Measured values reported in US20250145720A1.

Columns and labels:
[1] = biological target: human complement component C1q (human) (UniProt P02745); assay: cell-based or functional assay
[2] = biological target: human complement component C1q (human) (UniProt P02745); assay: FACS, C1q on antibody-opsonized Daudi cells, Exp. 6; no reliable fit, too weak binding
[3] = biological target: human complement component C1q (human) (UniProt P02745); assay: FACS, C1q on antibody-opsonized Daudi cells, ranking table; no reliable fit
[4] = biological target: human complement component C1q (human) (UniProt P02745); assay: FACS, C1q on antibody-opsonized Daudi cells, Exp. 11; no reliable fit, too weak binding
[5] = biological target: human complement component C1q (human) (UniProt P02745); assay: FACS, C1q on antibody-opsonized Daudi cells, average; no reliable fit, too weak binding
[6] = biological target: human complement component C1q (human) (UniProt P02745); assay: FACS, C1q on antibody-opsonized Daudi cells, Exp. 5; no reliable fit, too weak binding
[7] = biological target: human complement component C1q (human) (UniProt P02745); assay: FACS, C1q on antibody-opsonized Daudi cells, Exp. 10
[8] = biological target: human complement component C1q (human) (UniProt P02745); assay: FACS, C1q on antibody-opsonized Daudi cells, ranking table
[9] = biological target: human complement component C1q (human) (UniProt P02745); assay: FACS, C1q on antibody-opsonized Daudi cells, Exp. 7
[10] = biological target: human complement component C1q (human) (UniProt P02745); assay: FACS, C1q on antibody-opsonized Daudi cells, Exp. 9
[11] = biological target: human complement component C1q (human) (UniProt P02745); assay: FACS, C1q on antibody-opsonized Daudi cells, average (row shifted one column to the left)
[12] = biological target: human complement component C1q (human) (UniProt P02745); assay: FACS, C1q on antibody-opsonized Daudi cells, Exp. 8

Chain of human complement component C1q (human) (P02745 23-245 limits assumed, chain 1 of 3): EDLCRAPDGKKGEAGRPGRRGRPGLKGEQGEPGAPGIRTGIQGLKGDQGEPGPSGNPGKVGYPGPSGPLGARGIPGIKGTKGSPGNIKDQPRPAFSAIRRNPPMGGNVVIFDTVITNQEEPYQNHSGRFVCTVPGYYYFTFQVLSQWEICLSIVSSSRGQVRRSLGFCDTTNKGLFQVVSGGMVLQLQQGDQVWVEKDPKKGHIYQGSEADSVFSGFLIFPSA
Chain of human complement component C1q (human) (P02746 28-253 limits assumed, chain 2 of 3, further chain): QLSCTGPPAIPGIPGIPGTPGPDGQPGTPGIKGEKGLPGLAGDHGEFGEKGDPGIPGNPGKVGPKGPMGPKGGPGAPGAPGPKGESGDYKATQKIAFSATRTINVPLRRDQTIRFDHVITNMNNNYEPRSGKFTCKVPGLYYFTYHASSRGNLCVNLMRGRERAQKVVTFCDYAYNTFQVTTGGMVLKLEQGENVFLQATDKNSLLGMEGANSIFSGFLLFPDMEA
Chain of human complement component C1q (human) (P02747 29-245 limits assumed, chain 3 of 3, further chain): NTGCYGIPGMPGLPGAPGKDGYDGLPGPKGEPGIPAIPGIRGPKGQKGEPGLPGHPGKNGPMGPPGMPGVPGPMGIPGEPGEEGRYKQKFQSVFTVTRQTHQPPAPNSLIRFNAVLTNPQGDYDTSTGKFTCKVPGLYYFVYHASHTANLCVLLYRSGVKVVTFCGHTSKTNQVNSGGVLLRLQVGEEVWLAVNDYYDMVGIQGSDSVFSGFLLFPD

Substance: IgG1-7D8-H433D (antibody)
- CH50 (C1q concentration giving 50% lysis), CDC on Raji cells in C1q-depleted serum [1]: > 30 µg/mL
- EC50 of CDC on Daudi cells, 20% normal human serum [1]: 4.73 µg/mL
- EC50 of CDC on Raji cells, 20% normal human serum [1]: > 30 µg/mL
- Kd [2]: 1230 nM
- Kd [3]: 1960 nM
- Kd [4]: 2690 nM
- Kd [5]: 1960 nM

Substance: IgG1-7D8-Y436C (antibody)
- EC50 of CDC on Daudi cells, 20% normal human serum [1]: 1.9 µg/mL
- EC50 of CDC on Raji cells, 20% normal human serum [1]: 11.9 µg/mL
- Kd [6]: 2420 nM
- Kd [3]: 1270 nM
- Kd [4]: 128 nM
- Kd [5]: 1270 nM

Substance: IgG1-7D8-H433R (antibody)
- Kd [7]: 1.6 nM
- CH50 (C1q concentration giving 50% lysis), CDC on Raji cells in C1q-depleted serum [1]: 0.16 µg/mL
- EC50 of CDC on Daudi cells, 20% normal human serum [1]: 0.33 µg/mL
- EC50 of CDC on Raji cells, 20% normal human serum [1]: 1.42 µg/mL
- Kd [8]: 3 nM
- Kd [9]: 0.72 nM
- Kd [10]: 5.69 nM
- Kd [11]: 3 nM
- Kd [12]: 1.78 nM
